Results on 7 molecules are retold here after PMC4811514, “MULTIMERIN2 binds VEGF-A primarily via the carbohydrate chains exerting an angiostatic function and impairing tumor growth” (Oncotarget, 2015).

A word on the Kd: it is the free concentration of one partner at which half of the binding sites on the other are occupied at equilibrium, for simple one-to-one binding. High values mean weaker binding, low ones tighter binding.

The target of assay [1] is T1, MULTIMERIN2 (UniProt Q9H8L6 23-949, glycosylated (carbohydrate chains)).
T1 construct: MULTIMERIN2 (MMRN2), the whole recombinant His-tagged molecule; also called MMRN2; the whole molecule; source: 293-EBNA cells, purified from serum-free medium (Ni-NTA resin)
T1 sequence (looked up): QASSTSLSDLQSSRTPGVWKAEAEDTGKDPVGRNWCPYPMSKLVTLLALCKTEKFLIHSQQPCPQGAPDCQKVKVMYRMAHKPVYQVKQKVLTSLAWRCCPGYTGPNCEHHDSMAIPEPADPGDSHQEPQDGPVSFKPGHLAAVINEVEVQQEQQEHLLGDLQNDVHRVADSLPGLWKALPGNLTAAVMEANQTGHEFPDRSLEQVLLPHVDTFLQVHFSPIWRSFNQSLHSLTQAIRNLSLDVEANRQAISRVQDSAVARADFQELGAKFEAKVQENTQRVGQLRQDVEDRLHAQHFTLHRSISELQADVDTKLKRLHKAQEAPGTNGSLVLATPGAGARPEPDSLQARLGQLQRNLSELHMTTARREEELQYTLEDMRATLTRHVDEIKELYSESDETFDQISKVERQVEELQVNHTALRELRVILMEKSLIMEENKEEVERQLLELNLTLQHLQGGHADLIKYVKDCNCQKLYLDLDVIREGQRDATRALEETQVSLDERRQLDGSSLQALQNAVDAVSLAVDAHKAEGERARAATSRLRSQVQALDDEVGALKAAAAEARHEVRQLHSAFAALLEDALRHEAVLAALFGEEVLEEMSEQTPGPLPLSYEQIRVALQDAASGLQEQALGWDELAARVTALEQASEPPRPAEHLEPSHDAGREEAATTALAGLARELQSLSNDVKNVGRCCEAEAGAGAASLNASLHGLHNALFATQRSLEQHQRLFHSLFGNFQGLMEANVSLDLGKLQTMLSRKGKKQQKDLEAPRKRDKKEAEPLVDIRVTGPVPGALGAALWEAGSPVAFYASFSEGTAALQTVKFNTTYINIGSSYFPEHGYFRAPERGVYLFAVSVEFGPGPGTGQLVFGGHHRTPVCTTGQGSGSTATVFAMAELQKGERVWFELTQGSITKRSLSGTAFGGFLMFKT
In words: SPR; Biacore X100, CM5 chip; MMRN2 immobilised by amine coupling (3150 RU); cytokines in HBS-EP buffer (150 mM NaCl), 30 μL/min, 60 seconds of contact. For orientation: In SPR one partner is held on a chip, and binding of the other changes the refractive index at the surface.

The target in assay [2] is T1, MULTIMERIN2. In words: SPR; Biacore X100, CM5 chip; MMRN2 immobilised by amine coupling; NaCl concentration of 300 mM instead of 150 mM.
The target of the next assay is MMRN2 Δ2 deletion mutant (UniProt Q9H8L6). The assay can be described thus: SPR; Biacore X100, CM5 chip; Δ2 fragment immobilised by amine coupling (1770 RU); VEGF-A165 in HBS-EP buffer, 30 μL/min, 60 seconds of contact.

In the case of “VEGF-C (from UniProt P49767 112-227) (ligand)”, in the assay with MULTIMERIN2 [1], the Kd stood at 750 nM.
Consider VEGF-A189 (ligand), for which, in the assay with MULTIMERIN2 [2], the Kd stood at 3 nM.
VEGF-A165 (ligand) showed a Kd with MMRN2 Δ2 deletion mutant of 430 nM. In other words, the sub-micromolar range.
In turn, “PlGF-1 (from UniProt P49763-2 19-149) (ligand)” had a Kd in the assay with MULTIMERIN2 [1] of 560 nM.
VEGF-A145 (ligand) returned a Kd with MULTIMERIN2 [2] of 27 nM. That is a double-digit nanomolar value.
In the assay with MULTIMERIN2 [1], VEGF-A121 (ligand) returned a dissociation constant Kd of 200 nM.

B1: VEGF-D (ligand, UniProt O43915 89-205, looked up)
chain: FAATFYDIETLKVIDEEWQRTQCSPRETCVEVASELGKSTNTFFKPPCVNVFRCGGCCNEESLICMNTSTSYISKQLFEISVPLTSVPELVPVKVANHTGCKCLPTAPRHPYSIIRR
notes: vascular endothelial growth factor D; Commercial VEGF-D is usually the processed VEGF homology domain, not the whole precursor; source: bought: Peprotech
B1: the Kd with MULTIMERIN2 [1] (both partners purified) came to 640 nM. In other words, the sub-micromolar range.
